From article PMC4960319, “The anti-sigma factor RsrA responds to oxidative stress by reburying its hydrophobic core” (Nature Communications, 2016)
Where “and” joins values, the source holds several entries; their conditions need not be identical. Identical values can stand only once.

Legend:
Settings in all cases: both partners purified
[1] = target: T1, σR Trp88Ile Trp119Ile (Streptomyces coelicolor, UniProt Q7AKG9 5-227, Trp88Ile | Trp119Ile); assay: ITC; competition ITC as for the wild-type complex (Figure 3a): RsrAred.Zn2+ (100 μM) titrated into σR (10 μM, cell) in the presence of 50 μM weak competitor RsrA* Cys11Ser Cys44Ser; 35 °C, 50 mM Tris pH 7.5, 100 mM NaCl, 2 mM DTT
T1 construct: ECF sigma factor σR (SigR) of Streptomyces coelicolor; mutant of the tagless construct of residues 5-227 (all σR mutants were similarly purified); The limits are those of the wild-type construct; source: E. coli BL21(DE3), purified as wild-type σR

[2] = target: T2, σR (residues 5-227) (Streptomyces coelicolor, UniProt Q7AKG9 5-227); assay: stopped-flow tryptophan fluorescence; 25 °C, with zinc; kon: pseudo-first-order, σR 125 nM, RsrA 1.25-2.5 μM; koff: 2.5 μM complex displaced with 25 μM σR Trp88Ile Trp119Ile; Kd = koff/kon; 50 mM Tris pH 7.5, 100 mM NaCl, 2 mM DTT
T2 construct: ECF sigma factor σR (SigR) of Streptomyces coelicolor; residues 5-227 subcloned into pET21a with a C-terminal stop codon for tagless expression; also called sigma factor σR; SigR; source: E. coli BL21(DE3), purified without tags (ammonium sulfate precipitation, Q-Sepharose, Hi-Load S75)

[3] = target: T2, σR (residues 5-227); assay: stopped-flow tryptophan fluorescence; 35 °C, with zinc; kon: pseudo-first-order, σR 125 nM, RsrA 1.25-2.5 μM; koff: 2.5 μM complex displaced with 25 μM σR Trp88Ile Trp119Ile; Kd = koff/kon; 50 mM Tris pH 7.5, 100 mM NaCl, 2 mM DTT
[4] = target: T2, σR (residues 5-227); assay: stopped-flow tryptophan fluorescence; 25 °C, without zinc (EDTA-treated RsrA); kon: pseudo-first-order, σR 125 nM, RsrA 1.25-2.5 μM; koff: 2.5 μM complex displaced with 25 μM σR Trp88Ile Trp119Ile; Kd = koff/kon; 50 mM Tris pH 7.5, 100 mM NaCl, 2 mM DTT
[5] = target: T2, σR (residues 5-227); assay: stopped-flow tryptophan fluorescence; 35 °C, without zinc (EDTA-treated RsrA); kon: pseudo-first-order, σR 125 nM, RsrA 1.25-2.5 μM; koff: 2.5 μM complex displaced with 25 μM σR Trp88Ile Trp119Ile; Kd = koff/kon; 50 mM Tris pH 7.5, 100 mM NaCl, 2 mM DTT
[6] = target: T3, σ^R Trp88Ile Trp119Ile (Streptomyces coelicolor, UniProt Q7AKG9 5-227, Trp88Ile | Trp119Ile); assay: stopped-flow tryptophan fluorescence; dissociation by competition, with zinc: 2.5 μM complex mixed with 25 μM σ^R Trp88Ile Trp119Ile (10-fold excess); 25 or 35 °C, 50 mM Tris pH 7.5, 100 mM NaCl
T3 construct: ECF sigma factor σ^R (SigR) of Streptomyces coelicolor; both tryptophans replaced; The limits 5-227 are those stated for the tagless wild-type construct; source: E. coli BL21(DE3), purified as wild-type σ^R ("All σ^R mutants were similarly purified")

[7] = target: T4, σ^R (sigma factor SigR) from Streptomyces coelicolor, residues 5-227, tagless (Streptomyces coelicolor, UniProt Q7AKG9 5-227); assay: as above
T4 construct: ECF sigma factor σ^R (SigR) of Streptomyces coelicolor, residues 5-227 subcloned into pET21a (NdeI, BamHI) with a C-terminal stop codon; also called wild-type σ^R; source: E. coli BL21(DE3), pET21a, purified without tags (ammonium sulfate, Q-Sepharose, Hi-Load S75)

[8] = target: T4, σ^R (sigma factor SigR) from …; assay: ITC; direct titration in the absence of zinc: RsrA^red (100 μM), σ^R (10 μM); 35 °C, 50 mM Tris pH 7.5, 100 mM NaCl, 2 mM DTT; single site model
[9] = target: T4, σ^R (sigma factor SigR) from …; assay: ITC; competition ITC: RsrA^red.Zn^2+ (100 μM) titrated into σ^R (10 μM) with 50 μM weak-binding RsrA mutant in the cell; 35 °C, 50 mM Tris pH 7.5, 100 mM NaCl, 2 mM DTT; competitive binding model
[10] = target: T4, σ^R (sigma factor SigR) from …; assay: stopped-flow tryptophan fluorescence; dissociation by competition, without zinc (apo-RsrA): 2.5 μM complex mixed with 25 μM σ^R Trp88Ile Trp119Ile (10-fold excess); 25 °C, 50 mM Tris pH 7.5, 100 mM NaCl
[11] = target: T2, σR (residues 5-227); assay: ITC; with zinc (+), RsrA preincubated with 1 mM ZnCl2 and buffer exchanged; direct titration for weaker binding mutants (methods: 10 μM RsrA in the cell, 100 μM σR in the syringe); 35 °C, 50 mM Tris pH 7.5, 100 mM NaCl, 2 mM DTT; single binding site model
[12] = target: T4, σ^R (sigma factor SigR) from …; assay: ITC; RsrA mutants (values in Supplementary Table 1); 35 °C, 50 mM Tris pH 7.5, 100 mM NaCl, 2 mM DTT; direct titration for weaker binding mutants (10 μM RsrA in the cell, 100 μM σ^R in the syringe); RsrA preincubated with ZnCl2 and buffer exchanged where zinc was included

B1: RsrA wild type (natural protein, Streptomyces coelicolor, UniProt Q7AKG8 1-105, looked up)
chain: MSCGEPHETDCSEILDHLYEFLDKEMPDSDCVKFEHHFEECSPCLEKYGLEQAVKKLVKRCCGQDDVPGDLRAKVMGRLDLIRSGQSVPEHDVAAAPSSSAPQES
notes: Reduced protein; used with one equivalent of zinc or after EDTA treatment without zinc (told by the assay); also called RsrAred.Zn2+ (with one zinc); RsrAred (without zinc); source: E. coli BL21(DE3) pLysS, purified by a His-tag that was removed by thrombin; not shown: His tag, N-terminal, cleaved
[1]
  Kd: 0.173 nM
  stoichiometry N: 1.17
[2]
  Kd: 0.13 nM
  koff: 0.00071 s⁻¹
  kon: 5.4e+06 M⁻¹ s⁻¹
[3]
  Kd: 0.27 nM
  koff: 0.0024 s⁻¹
  kon: 8.9e+06 M⁻¹ s⁻¹
[4]
  Kd: 24.9 nM
  koff: 0.286 s⁻¹
  kon: 1.15e+07 M⁻¹ s⁻¹
[5]
  Kd: 62.4 nM
  koff: 1.08 s⁻¹
  kon: 1.73e+07 M⁻¹ s⁻¹

B2: RsrA* Cys11His Cys41His Cys44His (natural protein, Streptomyces coelicolor, UniProt Q7AKG8 1-105, looked up)
chain: MSAGEPHETDHSEILDHLYEFLDKEMPDSDAVKFEHHFEEHSPHLEKYGLEQAVKKLVKRAAGQDDVPGDLRAKVMGRLDLIRSGQSVPEHDVAAAPSSSAPQES
notes: Non-oxidative control; also called triple mutant; RsrA*^red.Zn^2+ Cys11His Cys41His Cys44His; source: E. coli BL21(DE3) pLysS, purified using a His-tag that was removed by thrombin cleavage; not shown: His-tag, N-terminal, cleaved
[6]
  binding result: binds
[7]
  koff: ~2.3 s⁻¹

B3: RsrA (wild type), anti-sigma factor from Streptomyces coelicolor (natural protein, UniProt Q7AKG8 1-105, looked up)
chain: MSCGEPHETDCSEILDHLYEFLDKEMPDSDCVKFEHHFEECSPCLEKYGLEQAVKKLVKRCCGQDDVPGDLRAKVMGRLDLIRSGQSVPEHDVAAAPSSSAPQES
notes: Used reduced with one zinc ion at the ZAS motif (RsrA^red.Zn^2+) or reduced without zinc (EDTA-treated); the assay tells which; also called RsrA^red.Zn^2+; RsrA^red; source: E. coli BL21(DE3) pLysS, purified using a His-tag that was removed by thrombin cleavage; not shown: His-tag, N-terminal, cleaved
[8]
  Kd: 79.3 ± 4.2 nM
  dH: -16.26 ± 0.13 kcal/mol
  stoichiometry N: 0.97 ± 0.004
[9]
  Kd: 0.78 nM and ~0.7 nM
  dH: -23.1 kcal/mol
  stoichiometry N: 1.01
[7]
  fold, kinetically derived Kd at 25 °C lower than at 35 °C: ~2 fold
[10]
  fold increase of koff without zinc against with zinc: 400 fold
  koff: ~0.3 s⁻¹

B4: RsrA* Cys11His (natural protein, Streptomyces coelicolor, UniProt Q7AKG8 1-105, looked up)
chain: MSAGEPHETDHSEILDHLYEFLDKEMPDSDAVKFEHHFEECSPCLEKYGLEQAVKKLVKRAAGQDDVPGDLRAKVMGRLDLIRSGQSVPEHDVAAAPSSSAPQES
notes: The complex with σ^R analysed by native MS has a theoretical mass of 40,128.08 Da, which may mean that tags were present in that sample; also called RsrA*^red.Zn^2+ Cys11His; source: E. coli BL21(DE3) pLysS, purified using a His-tag that was removed by thrombin cleavage; not shown: His-tag, N-terminal, cleaved
[6]
  binding result: binds
[7]
  koff: 0.064 s⁻¹

B5: RsrA* (RsrA with Cys3, Cys31, Cys61 and Cys62 mutated to alanine) (natural protein, Streptomyces coelicolor, UniProt Q7AKG8 1-105, looked up)
chain: MSAGEPHETDCSEILDHLYEFLDKEMPDSDAVKFEHHFEECSPCLEKYGLEQAVKKLVKRAAGQDDVPGDLRAKVMGRLDLIRSGQSVPEHDVAAAPSSSAPQES
notes: the four non-essential cysteines mutated to alanine; also called RsrA*^red.Zn^2+; source: E. coli BL21(DE3) pLysS, purified using a His-tag that was removed by thrombin cleavage; not shown: His-tag, N-terminal, cleaved
[6]
  binding result: binds
[7]
  koff: 0.0027 s⁻¹

B6: RsrA* C11H C41H C44H (natural protein, Streptomyces coelicolor, UniProt Q7AKG8 1-105, looked up)
chain: MSAGEPHETDHSEILDHLYEFLDKEMPDSDAVKFEHHFEEHSPHLEKYGLEQAVKKLVKRAAGQDDVPGDLRAKVMGRLDLIRSGQSVPEHDVAAAPSSSAPQES
notes: also called RsrA* Cys11His Cys41His Cys44His; source: E. coli BL21(DE3) pLysS, purified by a His-tag that was removed by thrombin; not shown: His tag, N-terminal, cleaved
[11]
  Kd: 305 nM

B7: RsrA* C11S (natural protein, Streptomyces coelicolor, UniProt Q7AKG8 1-105, looked up)
chain: MSAGEPHETDSSEILDHLYEFLDKEMPDSDAVKFEHHFEECSPCLEKYGLEQAVKKLVKRAAGQDDVPGDLRAKVMGRLDLIRSGQSVPEHDVAAAPSSSAPQES
notes: source: E. coli BL21(DE3) pLysS, purified by a His-tag that was removed by thrombin; not shown: His tag, N-terminal, cleaved
[11]
  Kd: 79 nM

B8: RsrA* Cys11Ser Cys44Ser (natural protein, Streptomyces coelicolor, UniProt Q7AKG8 1-105, looked up)
chain: MSAGEPHETDSSEILDHLYEFLDKEMPDSDAVKFEHHFEECSPSLEKYGLEQAVKKLVKRAAGQDDVPGDLRAKVMGRLDLIRSGQSVPEHDVAAAPSSSAPQES
notes: source: E. coli BL21(DE3) pLysS, purified using a His-tag that was removed by thrombin cleavage; not shown: His-tag, N-terminal, cleaved
[12]
  Kd: 185 nM

B9: RsrA* C11S C41S (natural protein, Streptomyces coelicolor, UniProt Q7AKG8 1-105, looked up)
chain: MSAGEPHETDSSEILDHLYEFLDKEMPDSDAVKFEHHFEESSPCLEKYGLEQAVKKLVKRAAGQDDVPGDLRAKVMGRLDLIRSGQSVPEHDVAAAPSSSAPQES
notes: as for B7
[11]
  Kd: 240 nM

B10: RsrA* Cys41His (natural protein, Streptomyces coelicolor, UniProt Q7AKG8 1-105, looked up)
chain: MSAGEPHETDCSEILDHLYEFLDKEMPDSDAVKFEHHFEEHSPCLEKYGLEQAVKKLVKRAAGQDDVPGDLRAKVMGRLDLIRSGQSVPEHDVAAAPSSSAPQES
notes: as for B8
[12]
  binding result: binds

B11: RsrA V75A L79A (natural protein, Streptomyces coelicolor, UniProt Q7AKG8 1-105, looked up)
chain: MSCGEPHETDCSEILDHLYEFLDKEMPDSDCVKFEHHFEECSPCLEKYGLEQAVKKLVKRCCGQDDVPGDLRAKAMGRADLIRSGQSVPEHDVAAAPSSSAPQES
notes: also called RsrA Val75Ala Leu79Ala; source: E. coli BL21(DE3) pLysS, purified by a His-tag that was removed by thrombin; not shown: His tag, N-terminal, cleaved
[11]
  Kd: 82.1 nM

B12: RsrA* C41S C44S (natural protein, Streptomyces coelicolor, UniProt Q7AKG8 1-105, looked up)
chain: MSAGEPHETDCSEILDHLYEFLDKEMPDSDAVKFEHHFEESSPSLEKYGLEQAVKKLVKRAAGQDDVPGDLRAKVMGRLDLIRSGQSVPEHDVAAAPSSSAPQES
notes: as for B7
[11]
  Kd: 297 nM

B13: RsrA* C11S C44S (natural protein, Streptomyces coelicolor, UniProt Q7AKG8 1-105, looked up)
chain: MSAGEPHETDSSEILDHLYEFLDKEMPDSDAVKFEHHFEECSPSLEKYGLEQAVKKLVKRAAGQDDVPGDLRAKVMGRLDLIRSGQSVPEHDVAAAPSSSAPQES
notes: also called RsrA* Cys11Ser Cys44Ser; source: E. coli BL21(DE3) pLysS, purified by a His-tag that was removed by thrombin; not shown: His tag, N-terminal, cleaved
[1]
  binding result: binds

B14: RsrA* Cys44His (natural protein, Streptomyces coelicolor, UniProt Q7AKG8 1-105, looked up)
chain: MSAGEPHETDCSEILDHLYEFLDKEMPDSDAVKFEHHFEECSPHLEKYGLEQAVKKLVKRAAGQDDVPGDLRAKVMGRLDLIRSGQSVPEHDVAAAPSSSAPQES
notes: as for B8
[12]
  binding result: binds

B15: RsrA V54A L57A (natural protein, Streptomyces coelicolor, UniProt Q7AKG8 1-105, looked up)
chain: MSCGEPHETDCSEILDHLYEFLDKEMPDSDCVKFEHHFEECSPCLEKYGLEQAAKKAVKRCCGQDDVPGDLRAKVMGRLDLIRSGQSVPEHDVAAAPSSSAPQES
notes: also called RsrA Val54Ala Leu57Ala; source: E. coli BL21(DE3) pLysS, purified by a His-tag that was removed by thrombin; not shown: His tag, N-terminal, cleaved
[11]
  Kd: 105 nM
